Assay results as given in patent US20250066499A1 (SUNSHINE GUOJIAN PHARMACEUTICAL SHANGHAI, published 2025).
Where two headings read alike, the source gives them in different places.

T1: human CD73-His protein (human, UniProt P21589 27-549)
T1 construct: Expressed in HEK-293F with a signal peptide that is not specified; In the ELISAs it was biotinylated with EZ-Link NHS-Biotin (CD73-biotin) and captured on streptavidin; in SPR and the enzyme assay it was used as CD73-His; also called CD73-his antigen; CD73-biotin
T1 sequence: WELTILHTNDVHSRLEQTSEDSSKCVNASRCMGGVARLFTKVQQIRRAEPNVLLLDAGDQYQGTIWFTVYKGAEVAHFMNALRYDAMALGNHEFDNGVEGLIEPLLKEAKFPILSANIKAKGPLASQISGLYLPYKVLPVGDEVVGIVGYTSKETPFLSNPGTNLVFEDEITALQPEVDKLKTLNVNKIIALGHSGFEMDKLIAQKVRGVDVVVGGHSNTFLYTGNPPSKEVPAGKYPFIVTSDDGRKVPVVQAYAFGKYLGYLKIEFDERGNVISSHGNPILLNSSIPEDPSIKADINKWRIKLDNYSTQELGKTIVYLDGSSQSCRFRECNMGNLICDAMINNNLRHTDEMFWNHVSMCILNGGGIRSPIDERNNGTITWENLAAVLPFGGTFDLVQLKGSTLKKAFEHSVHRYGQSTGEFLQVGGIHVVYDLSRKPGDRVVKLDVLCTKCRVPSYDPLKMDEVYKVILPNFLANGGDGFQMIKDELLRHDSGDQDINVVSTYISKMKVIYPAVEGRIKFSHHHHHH

T2: CD73-ND-P139A (human, UniProt P21589 27-317)
T2 construct: Alanine mutant of CD73-ND
T2 sequence: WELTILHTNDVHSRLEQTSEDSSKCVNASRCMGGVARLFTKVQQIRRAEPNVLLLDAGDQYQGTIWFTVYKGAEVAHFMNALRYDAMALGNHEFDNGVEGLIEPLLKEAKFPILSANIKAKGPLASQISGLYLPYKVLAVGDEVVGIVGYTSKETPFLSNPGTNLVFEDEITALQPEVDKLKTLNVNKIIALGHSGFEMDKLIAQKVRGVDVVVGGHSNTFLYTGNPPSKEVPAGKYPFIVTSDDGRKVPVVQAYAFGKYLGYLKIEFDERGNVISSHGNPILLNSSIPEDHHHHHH

T3: CD73-ND-his (human, UniProt P21589 27-317)
T3 construct: Biotinylated and captured on streptavidin in the ELISA
T3 sequence: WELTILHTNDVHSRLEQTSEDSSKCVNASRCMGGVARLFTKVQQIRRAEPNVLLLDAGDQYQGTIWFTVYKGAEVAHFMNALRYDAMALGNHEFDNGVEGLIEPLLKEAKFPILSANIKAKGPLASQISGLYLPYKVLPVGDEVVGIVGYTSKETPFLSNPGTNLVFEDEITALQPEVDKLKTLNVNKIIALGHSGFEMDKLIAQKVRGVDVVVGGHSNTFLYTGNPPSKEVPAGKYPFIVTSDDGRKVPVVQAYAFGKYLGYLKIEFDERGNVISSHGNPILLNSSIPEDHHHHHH

T4: CD73-ND-E143A (human, UniProt P21589 27-317)
T4 construct: Alanine mutant of CD73-ND
T4 sequence: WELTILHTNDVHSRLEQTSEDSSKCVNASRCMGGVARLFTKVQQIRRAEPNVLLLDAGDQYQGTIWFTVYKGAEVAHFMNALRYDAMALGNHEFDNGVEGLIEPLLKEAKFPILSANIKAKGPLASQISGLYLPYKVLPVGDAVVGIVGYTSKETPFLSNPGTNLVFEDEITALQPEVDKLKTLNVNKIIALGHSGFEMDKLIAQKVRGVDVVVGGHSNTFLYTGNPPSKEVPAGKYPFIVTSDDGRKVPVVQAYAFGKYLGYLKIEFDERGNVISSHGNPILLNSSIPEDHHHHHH

T5: CD73-ND-L181A (human, UniProt P21589 27-317)
T5 construct: Alanine mutant of CD73-ND
T5 sequence: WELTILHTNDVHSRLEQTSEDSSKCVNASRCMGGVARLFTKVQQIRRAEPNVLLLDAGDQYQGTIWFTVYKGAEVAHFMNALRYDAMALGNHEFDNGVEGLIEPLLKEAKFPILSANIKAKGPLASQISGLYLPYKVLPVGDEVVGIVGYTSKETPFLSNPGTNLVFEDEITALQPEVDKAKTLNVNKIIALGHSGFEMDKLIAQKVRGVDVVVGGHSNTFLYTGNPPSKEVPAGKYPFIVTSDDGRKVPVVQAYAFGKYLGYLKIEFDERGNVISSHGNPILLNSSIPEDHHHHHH


Experiments:
human CD73-His protein [1] = target: T1, human CD73-His protein; assay: ELISA as in Example 3, antigen CD73-his, antibody titrated, absorbance 450 nm
CD73-ND-P139A = target: T2, CD73-ND-P139A; assay: ELISA, high plateau value (OD 450 nm)
Description: (§1) The ELISA plates were coated with SA protein diluted to 1.5 μg/mL in coating buffer (50 mM carbonate coating buffer, pH 9.6) and incubated overnight at 4° C. The supernatant was discarded, and the plates were washed three times with PBST. Then, 5% skimmed milk powder prepared with PBS was added for blocking and the plates were incubated for 2 h at 37° C. After washing the plates once with PBST, CD73-biotin protein (prepared by biotinylating CD73-His protein according to the EZ-Link NHS-Biotin Reagent instructions) was diluted to 0.5 μg/mL and added at 100 μL/well for incubation at room temperature for 1 h. The plates were washed three times with PBST, and the prepared murine-derived monoclonal antibodies against human CD73 were serially diluted with 1% BSA buffer prepared with PBST and added to the ELISA plates at 100 μl/well. The plates were incubated at 37° C. for 1 h. After washing the plates three times with PBST, HRP-labeled goat anti-mouse IgG secondary antibody was added and the plates were incubated for 30 min at 37° C. After washing the plates three times with PBST, the residual droplets were patted dry on absorbent paper as much as possible. Then, 100 μl of TMB color developing solution was added to each well, and the plates were incubated in the dark at room temperature for 5 min for color development. Subsequently, 50 μl of 2M H₂SO₄ stop solution was added to each well to terminate the substrate reaction. The OD values were read at 450 nm using a multimode microplate reader to analyze the binding ability of the tested antibodies to the target antigen human CD73-His.
(§2) Referring to the experimental method in Example 3, the affinity of 48A11-HuV33 for various mutant proteins of CD73-ND was determined. The SA protein was diluted to 1 μg/mL for coating the ELISA plates, and the biotinylated CD73 protein (CD73-biotin) was used at a concentration of 0.1 μg/mL.

CD73-ND-his = target: T3, CD73-ND-his; assay: ELISA, biotinylated antigen on streptavidin plate
Description: as §1, §2

CD73-ND-E143A = target: T4, CD73-ND-E143A; assay: ELISA, biotinylated antigen on streptavidin plate
Description: as §1, §2

CD73-ND-L181A = target: T5, CD73-ND-L181A; assay: ELISA, biotinylated antigen on streptavidin plate
Description: as §1, §2

human CD73-His protein [2] = target: T1, human CD73-His protein; assay: ELISA as in Example 3, antigen CD73-his, antibody titrated, absorbance 450 nm; remark: listed apart in the source

| Binder | EC50 (read off the curve) (human CD73-His protein [1]) [nM] | Top (CD73-ND-P139A) | EC50 (CD73-ND-his) [nM] | EC50 (CD73-ND-E143A) [nM] | EC50 (CD73-ND-L181A) [nM] | EC50 (read off the curve) (human CD73-His protein [2]) [nM] |
| --- | --- | --- | --- | --- | --- | --- |
| 56B10-HuV31 (antibody, human IgG4, V domains shown, Humanized) VH: QVQLQQSGAEVKKPGASVKVSCKASGYTFTRYYIYWVRQRPGQGLEWIGWIYPGNFNTKYNEKFKGRATLTADTSASTAYMELSSLTSEDTAVYYCARDVYDYAGFAYWGQGTLVTVSS VL: DIQLTQSPSFLSASVGDRVTITCKASQGVATAVAWYQQKPGQSPKLLIYWASTRHTGVPDRFSGSGSGTEFTLTISSLQPEDFATYYCQQYSSYPWTFGQGTKVEIK | ~0.07 | – | – | – | – | – |
| 48A11-HuV33 (antibody, human IgG4, V domains shown, Humanized) VH: QVQLVQSGAEVKKPGASVKVSCKASGYTFTSYWMHWVRQAPGQGLEWIGEINPSIGRTNYNEKFKSRVTLTRDTSTSTAYMELSSLRSEDTAVYYCARRVYGTMDYWGQGTLVTVSS VL: DIQMTQSPSSLSASVGDRVTITCKASQDINSYLSWFQQKPGKSPKLLIYRANIWVDGVPSRFSGSGSGQDYTFTISSLQPEDIATYYCLQYDELYTFGQGTKVEIK | – | 0.871 | 0.117 | 0.167 | 0.226 | ~0.04 |
